Reference: the supplement of paper PMC7125110
± gives the standard error. This sample holds only a part of the variants without activity.

B1: glmS ribozyme (parent)
chain: AUAAAAGCGCCAGAACUACAGAAAUGUAGUUGACGAGGAGGAGGUUUAUCGAAUUUUCGGCGGAUGCCUCCAAA

Variants of: B1
Experiment: self-cleavage kobs at 10000 uM GlcN6P; higher = faster cleavage; RNA array
Conditions: with glucosamine-6-phosphate
Procedure, shortened: (§1)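 On sequenced MiSeq chips, barcoded ribozyme variants were made in situ by E. coli RNA polymerase and followed at 37 °C through a hybridised Cy3 probe. Glucosamine-6-phosphate was flowed in at 40 μM to 10 mM in HEPES/KCl/Mg(OAc)2 buffer. Exponential fits to normalised per-tile medians gave kobs, and weighted Michaelis–Menten fits gave kcat and KM.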

| Variant | self-cleavage kobs at 10000 uM GlcN6P [s⁻¹] |
| --- | --- |
| A6C C8A A36C | < 1e-05 |
| C8U U57A U69G | 0.000575 ± 0.00016 |
| G51U G59C G66U | < 1e-05 |
| A6G C58U A64U | < 1e-05 |
| A12C C16G U49A C68A | < 1e-05 |
| G41A G63U C70U | < 1e-05 |
| G7U C50G G51A C70G | 6.12e-05 ± 1.7e-05 |
| C8G G43C C50U | < 1e-05 |
| A6U A33G C34U G44U U49C U57G | < 1e-05 |
| G7A G13C G60A | < 1e-05 |
| C8U U31C A39U G66C | < 1e-05 |
| C8U A48U C71U | < 1e-05 |
| G9C C10G A52U C71A | < 1e-05 |
| U2C C11U G59U | 0.000103 ± 2.1e-05 |
| G7C G29A | < 1e-05 |
| A12C G26A G41A U54G | 0.00044 ± 0.00012 |
| C11G A12G G32C U57C | < 1e-05 |
| A6C C50A U55G | < 1e-05 |
| C10U A33U G37C A53U U57A A64G | < 1e-05 |
| C8U C16A A39C C58U A64G C67G | < 1e-05 |
| C11U A52G G63C U69G | 8.28e-05 ± 1.9e-05 |
| A12C G29C C70U | 0.00119 ± 0.00031 |
| A12C G37A A39C | 0.000849 ± 0.00015 |
| U55G C70U C71G | 0.000142 ± 3.8e-05 |

| Variant | self-cleavage kobs at 10000 uM GlcN6P [s⁻¹] |
| --- | --- |
| C10G G40U U55A C61U | < 1e-05 |
| G9A A33U U69C | < 1e-05 |
| G7U A15C A36G | < 1e-05 |
| C11A G40A U55G C71G | < 1e-05 |
| C8G U30A A39G G41C U54G C67A | < 1e-05 |
| C11U A39U U54G | 0.000492 ± 0.00011 |
| C10A C11G C16G A48U C50G C70A | 6.85e-05 ± 1.8e-05 |
| C8G A15C G40A G41U C50U C70G | < 1e-05 |
| A6G A52U G60A G66A | < 1e-05 |
| A6G C34A A42U U54G | < 1e-05 |
| A52G U55A | 0.00185 ± 0.00032 |
| G9U G41U C58A G60C | < 1e-05 |
| C10U A42C A52U | < 1e-05 |
| C8U G29A U31G | < 1e-05 |
| A6C U31C G35A A42C | < 1e-05 |
| C10G A14U C16A U54G C61U G62U | < 1e-05 |
| A12C G13U U47A U56A | 4.59e-05 ± 1.6e-05 |
| A6U G29U G62C | < 1e-05 |
| G9U G43U A53C | < 1e-05 |
| U45C A48U U65A | < 1e-05 |
| C8U U30G A39G G43U | < 1e-05 |
| G7A A53C G63A | < 1e-05 |
| A6U C10U G44A C50U | < 1e-05 |

Variants of: B1
Experiment: self-cleavage kobs at 2500 uM GlcN6P; higher = faster cleavage; RNA array
Conditions: with glucosamine-6-phosphate
Procedure, shortened: as §1

| Variant | self-cleavage kobs at 2500 uM GlcN6P [s⁻¹] |
| --- | --- |
| G41U U57G C70A | 0.000107 ± 1.9e-05 |
| A42G G43A G62U | < 1e-05 |
| U55G C58G G60U | < 1e-05 |
| G51A A53C G62C | < 1e-05 |
| G51U G59C G66U | < 1e-05 |
| G44A A52U G60U | < 1e-05 |
| G40U G66A C70U | 0.0016 ± 0.00053 |
| U56A C58G C67U | 4.09e-05 ± 1.7e-05 |
| U46G C50G C68G | 4.12e-05 ± 2e-05 |
| G41A G63U C70U | < 1e-05 |
| U49C U55C C70G | < 1e-05 |
| G41C A42G U55A | 9.68e-05 ± 2.6e-05 |
| U65G C67G C68G | 3.55e-05 ± 1.4e-05 |
| U49A U54G | 4.22e-05 ± 1.9e-05 |
| U47C U57C C71G | < 1e-05 |
| U47A C68G U69G | 7.59e-05 ± 3.7e-05 |
| G51U U54G C61U | < 1e-05 |
| U55G C70U C71G | 7.27e-05 ± 1.7e-05 |
| A42G A52G C67A | 0.000326 ± 8.1e-05 |

| Variant | self-cleavage kobs at 2500 uM GlcN6P [s⁻¹] |
| --- | --- |
| G40U A53G U65C | 4.92e-05 ± 1.4e-05 |
| G51U U55C G62A G66C C67U | < 1e-05 |
| U56A G63U | < 1e-05 |
| A52G U55A | 0.000757 ± 0.00015 |
| G41C G51U U69C | < 1e-05 |
| U47A A53U U65A | 0.00126 ± 0.00036 |
| G44U U45A U47A | 0.000474 ± 0.0002 |
| U45C U56C G63A | < 1e-05 |
| G41U G44C U55G G59U | < 1e-05 |
| G44U U45G C70U | 0.000791 ± 0.00023 |
| G41C G43U G59A | < 1e-05 |
| C50U A64U C71U | < 1e-05 |
| A42G G44C C58A C68U | < 1e-05 |
| G43C A53U C58G A64G | < 1e-05 |
| G43A G62C A64U C70G | < 1e-05 |
| U46G U49G C50U A52G | < 1e-05 |
| A52G G62A G63U U69G | 0.000139 ± 4.7e-05 |
| U45C A48U U65A | < 1e-05 |
| G66A C67U C70U | 0.000488 ± 0.00017 |
